Biological target: T1, His-tagged human TSLP antigen (huTSLP-his) (human)
T1 construct: Secreted from HEK293E and purified on nickel; whole entry named; also called Human TSLP-his
Assay: ELISA, coated huTSLP-his;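 note: binding of antibodies to plate-bound TSLP read as absorbance at 450 nm after TMB colour development, EC50 derived from binding curves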
Description: The plate was incubated at 4° C. overnight. After the liquid was discarded, 5% skim milk (skim milk powder from Brightdairy) blocking solution diluted with PBS was added at 200 μL/well, and the plate was incubated in an incubator at 37° C. for 2 h for blocking. After the blocking, the blocking solution was discarded, and the plate was washed 3 times with a PBST buffer (PBS containing 0.1% (v/v) tween-20, pH 7.4). […] After the incubation, the plate was washed 3 times with PBST. […] After the plate was washed 6 times with PBST, a TMB chromogenic substrate (KPL, 52-00-03) was added at 50 μL/well, and the plate was incubated at room temperature for 10-15 min. Then, 1 M H₂SO₄ was added at 50 μL/well to stop the reaction. The absorbance at 450 nm was read with a NOVOStar microplate reader, and the EC₅₀ values for the binding of the TSLP antibodies to TSLP were calculated.

| EC50 [nM] | Binder |
| --- | --- |
| 0.341 | hu119-20 (antibody, human IgG1, kappa, IgG1-YTE, kappa) heavy: EAQLVQSGAEVKKPGSSVKVSCKASGFTFSTYNMHWVRQAPGQGLEWIGAIYPGNGETSYNQKFKDRATLTVDKSTSTAYMELSSLRSEDTAVYYCAREDDYGEGYFDVWGQGTTVTVSSASTKGPSVFPLAPSSKSTSGGTAALGCLVKDYFPEPVTVSWNSGALTSGVHTFPAVLQSSGLYSLSSVVTVPSSSLGTQTYICNVNHKPSNTKVDKKVEPKSCDKTHTCPPCPAPELLGGPSVFLFPPKPKDTLYITREPEVTCVVVDVSHEDPEVKFNWYVDGVEVHNAKTKPREEQYNSTYRVVSVLTVLHQDWLNGKEYKCKVSNKALPAPIEKTISKAKGQPREPQVYTLPPSRDELTKNQVSLTCLVKGFYPSDIAVEWESNGQPENNYKTTPPVLDSDGSFFLYSKLTVDKSRWQQGNVFSCSVMHEALHNHYTQKSLSLSPGK light: EIVLTQSPATLSLSPGERATLSCRASESVDNSGLSFMHWYQQKPGQPPRLLLYRASNLGSGIPARFSGSGSGTDFTLTISSLEPEDFAVYYCQQINTDPLTFGQGTKLEIKRTVAAPSVFIFPPSDEQLKSGTASVVCLLNNFYPREAKVQWKVDNALQSGNSQESVTEQDSKDSTYSLSSTLTLSKADYEKHKVYACEVTHQGLSSPVTKSFNRGEC |
| 0.366 | hu119-16 (antibody, human IgG1, kappa, V domains shown, IgG1-YTE, kappa) VH: EVQLVQSGAEVKKPGSSVKVSCKASGGTFSTYNMHWVRQAPGQGLEWIGAIYPGNGETSYNQKFKDRATLTVDKSTRTAYMELSSLRSEDTAVYYCAREDDYGEGYFDVWGQGTTVTVSS VL: EIVLTQSPATLSLSPGERATLSCRASESVDNSGLSFMHWYQQKPGQAPRLLIYRASNLGSGIPARFSGSGSGTDFTLTISSLEPEDFAVYYCQQINTDPLTFGQGTKLEIKR |
| 0.351 | hu119-17 (antibody, human IgG1, kappa, V domains shown, IgG1-YTE, kappa) VH: EAQLVQSGAEVKKPGSSVKVSCKASGFTFSTYNMHWVRQAPGQGLEWIGAIYPGNGETSYNQKFKDRATLTVDKSTRTAYMELSSLRSEDTAVYYCAREDDYGEGYFDVWGQGTTVTVSS VL: EIVLTQSPATLSLSPGERATLSCRASESVDNSGLSFMHWYQQKPGQAPRLLIYRASNLGSGIPARFSGSGSGTDFTLTISSLEPEDFAVYYCQQINTDPLTFGQGTKLEIKR |
| 0.353 | hu119-19 (antibody, human IgG1, kappa, IgG1-YTE, kappa) heavy: EVQLVQSGAEVKKPGSSVKVSCKASGGTFSTYNMHWVRQAPGQGLEWIGAIYPGNGETSYNQKFKDRATLTVDKSTSTAYMELSSLRSEDTAVYYCAREDDYGEGYFDVWGQGTTVTVSSASTKGPSVFPLAPSSKSTSGGTAALGCLVKDYFPEPVTVSWNSGALTSGVHTFPAVLQSSGLYSLSSVVTVPSSSLGTQTYICNVNHKPSNTKVDKKVEPKSCDKTHTCPPCPAPELLGGPSVFLFPPKPKDTLYITREPEVTCVVVDVSHEDPEVKFNWYVDGVEVHNAKTKPREEQYNSTYRVVSVLTVLHQDWLNGKEYKCKVSNKALPAPIEKTISKAKGQPREPQVYTLPPSRDELTKNQVSLTCLVKGFYPSDIAVEWESNGQPENNYKTTPPVLDSDGSFFLYSKLTVDKSRWQQGNVFSCSVMHEALHNHYTQKSLSLSPGK light: EIVLTQSPATLSLSPGERATLSCRASESVDNSGLSFMHWYQQKPGQPPRLLLYRASNLGSGIPARFSGSGSGTDFTLTISSLEPEDFAVYYCQQINTDPLTFGQGTKLEIKRTVAAPSVFIFPPSDEQLKSGTASVVCLLNNFYPREAKVQWKVDNALQSGNSQESVTEQDSKDSTYSLSSTLTLSKADYEKHKVYACEVTHQGLSSPVTKSFNRGEC |
| 0.35 | hu119-15 (antibody, human IgG1, kappa, V domains shown, IgG1-YTE, kappa) VH: EAQLVQSGAEVKKPGSSVKVSCKASGFTFSTYNMHWVRQAPGQGLEWIGAIYPGNGETSYNQKFKDRATLTVDKSTSTAYMELSSLRSEDTAVYYCAREDDYGEGYFDVWGQGTTVTVSS VL: EIVLTQSPATLSLSPGERATLSCRASESVDNSGLSFMHWYQQKPGQAPRLLIYRASNLGSGIPARFSGSGSGTDFTLTISSLEPEDFAVYYCQQINTDPLTFGQGTKLEIKR |
| 0.399 | hu119-21 (antibody, human IgG1, kappa, IgG1-YTE, kappa) heavy: EVQLVQSGAEVKKPGSSVKVSCKASGGTFSTYNMHWVRQAPGQGLEWIGAIYPGNGETSYNQKFKDRATLTVDKSTRTAYMELSSLRSEDTAVYYCAREDDYGEGYFDVWGQGTTVTVSSASTKGPSVFPLAPSSKSTSGGTAALGCLVKDYFPEPVTVSWNSGALTSGVHTFPAVLQSSGLYSLSSVVTVPSSSLGTQTYICNVNHKPSNTKVDKKVEPKSCDKTHTCPPCPAPELLGGPSVFLFPPKPKDTLYITREPEVTCVVVDVSHEDPEVKFNWYVDGVEVHNAKTKPREEQYNSTYRVVSVLTVLHQDWLNGKEYKCKVSNKALPAPIEKTISKAKGQPREPQVYTLPPSRDELTKNQVSLTCLVKGFYPSDIAVEWESNGQPENNYKTTPPVLDSDGSFFLYSKLTVDKSRWQQGNVFSCSVMHEALHNHYTQKSLSLSPGK light: EIVLTQSPATLSLSPGERATLSCRASESVDNSGLSFMHWYQQKPGQPPRLLLYRASNLGSGIPARFSGSGSGTDFTLTISSLEPEDFAVYYCQQINTDPLTFGQGTKLEIKRTVAAPSVFIFPPSDEQLKSGTASVVCLLNNFYPREAKVQWKVDNALQSGNSQESVTEQDSKDSTYSLSSTLTLSKADYEKHKVYACEVTHQGLSSPVTKSFNRGEC |
| 0.345 | hu119-14 (antibody, human IgG1, kappa, V domains shown, IgG1-YTE, kappa) VH: EVQLVQSGAEVKKPGSSVKVSCKASGGTFSTYNMHWVRQAPGQGLEWIGAIYPGNGETSYNQKFKDRATLTVDKSTSTAYMELSSLRSEDTAVYYCAREDDYGEGYFDVWGQGTTVTVSS VL: EIVLTQSPATLSLSPGERATLSCRASESVDNSGLSFMHWYQQKPGQAPRLLIYRASNLGSGIPARFSGSGSGTDFTLTISSLEPEDFAVYYCQQINTDPLTFGQGTKLEIKR |
| 0.218 | hu179-17 (antibody, human IgG1, kappa, IgG1-YTE, kappa) heavy: EVQLVQSGAEVKKPGSSVKVSCKASGYAFSNYLIEWVRQAPGQGLEWIGVIDPGNGDTNYNENFKGRATLTADKSTSTAYMELSSLRSEDTAVYYCAREDNTGTAFDYWGQGTTVTVSSASTKGPSVFPLAPSSKSTSGGTAALGCLVKDYFPEPVTVSWNSGALTSGVHTFPAVLQSSGLYSLSSVVTVPSSSLGTQTYICNVNHKPSNTKVDKKVEPKSCDKTHTCPPCPAPELLGGPSVFLFPPKPKDTLYITREPEVTCVVVDVSHEDPEVKFNWYVDGVEVHNAKTKPREEQYNSTYRVVSVLTVLHQDWLNGKEYKCKVSNKALPAPIEKTISKAKGQPREPQVYTLPPSRDELTKNQVSLTCLVKGFYPSDIAVEWESNGQPENNYKTTPPVLDSDGSFFLYSKLTVDKSRWQQGNVFSCSVMHEALHNHYTQKSLSLSPGK light: SIVMTQTPLSLSVTPGQPASISCKASQSVSSDVTWYLQKPGQSPQLLIYYVSNHYTGVPDRFSGSGSGTDFTLKISRVEAEDVGVYYCQQHHRFPLTFGQGTKLEIKRTVAAPSVFIFPPSDEQLKSGTASVVCLLNNFYPREAKVQWKVDNALQSGNSQESVTEQDSKDSTYSLSSTLTLSKADYEKHKVYACEVTHQGLSSPVTKSFNRGEC |
| 0.246 | hu179-18 (antibody, human IgG1, kappa, V domains shown, IgG1-YTE, kappa) VH: EVQLVQSGAEVKKPGSSVKVSCKASGYAFSNYLIEWVRQAPGQGLEWIGVIDPGNGDTNYNENFKGRATLTADKSTSTAYMELSSLRSEDTAVYYCAREDNTGTAFDYWGQGTTVTVSS VL: SIVMTQTPLSLSVTPGQPASISCKASQSVSSDVTWYLQKPGQSPQLLIYYVSNHYTGVPDRFSGSGSGTDFTFKISRVEAEDVGVYYCQQHHRFPLTFGQGTKLEIKR |
| 0.162 | hu179-19 (antibody, human IgG1, kappa, V domains shown, IgG1-YTE, kappa) VH: EVQLVQSGAEVKKPGSSVKVSCKASGYAFSNYLIEWVRQAPGQGLEWIGVIDPGNGDTNYNENFKGRATLTADKSTSTAYMELSSLRSEDTAVYYCAREDNTGTAFDYWGQGTTVTVSS VL: SIVMTQTPLSLSVTPGQPASISCKASQSVSSDVTWYLQKPGQSPQLLIYYVSNHYTGVPDRFSGSGYGTDFTLKISRVEAEDVGVYYCQQHHRFPLTFGQGTKLEIKR |

Reference: patent publication US20240016931A1 (JIANGSU HENGRUI PHARMACEUTICALS, published 2024)
